In patent publication US9029508 (dated 2015):

B1: DVD516 DLL4 arm (antibody, V domains shown)
VH: EVQLQQSGPELEKPGASVKISCKASGYSFTGYNMNWVKQSNGKSLEWIGNIDPYFGGTNYNQKFKGKATLTVDKSSSTAYMQLKSLTSEDSAVYYCARNYDYDGGCFDYWGQGTTLTVSS
VL: QAVVTQESALTTSPGETVTLTCRSSTGAVTTSNYANWVQEKPDHLFTGLIGGTNNRAPGVPARFSGSLIGDKAALTITGAQTEDEAIYFCALWYSNHWVFGGGTKLTVLG
modifications: DVD-Ig inner
B2: DVD528 DLL4 arm (antibody, V domains shown)
VH: B1 VH
VL: B1 VL
modifications: DVD-Ig inner
B3: DVD531 DLL4 arm (antibody, V domains shown)
VH: B1 VH
VL: B1 VL
modifications: DVD-Ig outer
B4: DVD530 DLL4 arm (antibody, V domains shown)
VH: B1 VH
VL: B1 VL
modifications: DVD-Ig inner
B5: DVD518 DLL4 arm (antibody, V domains shown)
VH: B1 VH
VL: B1 VL
modifications: DVD-Ig inner
B6: DVD524 DLL4 arm (antibody, V domains shown)
VH: B1 VH
VL: B1 VL
modifications: DVD-Ig inner
B7: DVD517 DLL4 arm (antibody, V domains shown)
VH: B1 VH
VL: B1 VL
modifications: DVD-Ig outer
B8: DVD501 DLL4 arm (antibody, V domains shown)
VH: EVQLQQSGPELVKPGASVKMSCKASGYTFTSYVINWVKQKPGQGLEWIGLINPYNDGTKYNEKFKVKATLTSDKSSSTAYMELSSLTSEDSAVYYCASYYYGSRYYFDYWGQGTTLTVSS
VL: DIQMTQSSSYLSVSLGGRVTITCKASDHINNWLAWYQQKPGNAPRLLISGATSLETGVPSRFSGSGSGKDYTLSITSLQTEDVATYYCQQYWSIPLTFGAGTKLELKR
modifications: DVD-Ig outer
B9: DVD503 DLL4 arm (antibody, V domains shown)
VH: B8 VH
VL: B8 VL
modifications: DVD-Ig outer
B10: DVD502 DLL4 arm (antibody, V domains shown)
VH: B8 VH
VL: B8 VL
modifications: DVD-Ig inner
B11: DVD492 DLL4 arm (antibody, V domains shown)
VH: B8 VH
VL: B8 VL
modifications: DVD-Ig inner
B12: DVD506 DLL4 arm (antibody, V domains shown)
VH: B8 VH
VL: B8 VL
modifications: DVD-Ig inner
B13: DVD494 DLL4 arm (antibody, V domains shown)
VH: B8 VH
VL: B8 VL
modifications: DVD-Ig inner
B14: DVD496 DLL4 arm (antibody, V domains shown)
VH: B8 VH
VL: B8 VL
modifications: DVD-Ig inner
B15: DVD499 DLL4 arm (antibody, V domains shown)
VH: B8 VH
VL: B8 VL
modifications: DVD-Ig outer
B16: DVD480 DLL4 arm (antibody)
chain 1: EVQLVESGGGLVQPGGSLRLSCAASGFTFTDNWISWVRQAPGKGLEWVGYISPNSGFTYYADSVKGRFTISADTSKNTAYLQMNSLRAEDTAVYYCARDNFGGYFDYWGQGTLVTVSS
chain 2: DIQMTQSPSSLSASVGDRVTITCRASQDVSTAVAWYQQKPGKAPKLLIYSASFLYSGVPSRFSGSGSGTDFTLTISSLQPEDFATTYYCQQSYTGTVTFGQGTKVEIKR
modifications: DVD-Ig inner
B17: DVD481 DLL4 arm (antibody)
chain 1: B16 chain 1
chain 2: B16 chain 2
modifications: DVD-Ig outer
B18: DVD476 DLL4 arm (antibody)
chain 1: B16 chain 1
chain 2: B16 chain 2
modifications: DVD-Ig inner
B19: DVD478 DLL4 arm (antibody)
chain 1: B16 chain 1
chain 2: B16 chain 2
modifications: DVD-Ig inner
B20: DVD479 DLL4 arm (antibody)
chain 1: B16 chain 1
chain 2: B16 chain 2
modifications: DVD-Ig outer
B21: DVD456 DLL4 arm (antibody, V domains shown)
VH: QVQLVQSGAEVKKPGASVKISCKASGYSFTAYYIHWVKQAPGQGLEWIGYISSYNGATNYNQKFKGRVTFTTDTSTSTAYMELRSLRSDDTAVYYCARDYDYDVGMDYWGQGTLVTVSS
VL: DIVMTQSPDSLAVSLGERATISCRASESVDNYGISFMKWFQQKPGQPPKLLIYAASNQGSGVPDRFSGSGSGTDFTLTISSLQAEDVAVYYCQQSKEVPWTFGGGTKVEIKR
modifications: DVD-Ig inner
B22: DVD450 DLL4 arm (antibody, V domains shown)
VH: B21 VH
VL: B21 VL
modifications: DVD-Ig inner
B23: DVD443 DLL4 arm (antibody, V domains shown)
VH: B21 VH
VL: B21 VL
modifications: DVD-Ig outer
B24: DVD447 DLL4 arm (antibody, V domains shown)
VH: B21 VH
VL: B21 VL
modifications: DVD-Ig outer

What follows are binders tested against DLL4 (human, UniProt Q9NR61) (assay: ELISA).
Sequence of DLL4 (Q9NR61 27-524): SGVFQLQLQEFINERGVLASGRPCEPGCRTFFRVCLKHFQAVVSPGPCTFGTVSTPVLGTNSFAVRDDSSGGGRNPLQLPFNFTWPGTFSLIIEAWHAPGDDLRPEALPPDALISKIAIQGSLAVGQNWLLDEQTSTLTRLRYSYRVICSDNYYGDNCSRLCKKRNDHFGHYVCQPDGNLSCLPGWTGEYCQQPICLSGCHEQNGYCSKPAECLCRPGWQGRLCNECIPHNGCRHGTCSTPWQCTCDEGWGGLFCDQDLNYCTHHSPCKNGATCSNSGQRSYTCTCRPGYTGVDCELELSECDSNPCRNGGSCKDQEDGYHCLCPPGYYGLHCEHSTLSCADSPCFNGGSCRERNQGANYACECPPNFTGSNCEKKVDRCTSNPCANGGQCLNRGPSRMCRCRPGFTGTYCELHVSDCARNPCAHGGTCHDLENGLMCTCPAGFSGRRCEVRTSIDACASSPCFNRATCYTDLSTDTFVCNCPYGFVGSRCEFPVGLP

Point of comparison: B24, EC50 0.12 nM. Against it:
- B1 — 36-fold higher, 4.33 nM
- B2 — 6.8-fold higher, 0.81 nM
- B3 — 4.8-fold higher, 0.57 nM
- B4 — 1.8-fold higher, 0.22 nM
- B5 — 49-fold higher, 5.9 nM
- B6 — 1.8-fold higher, 0.22 nM
- B7 — within 1.5-fold, 0.1 nM
- B8 — 1.5-fold higher, 0.18 nM
- B9 — 2.8-fold higher, 0.33 nM
- B10 — 26-fold higher, 3.17 nM
- B11 — 15-fold higher, 1.77 nM
- B12 — 2.7-fold higher, 0.32 nM
- B13 — 330-fold higher, 39.5 nM
- B14 — 47-fold higher, 5.59 nM
- B15 — within 1.5-fold, 0.09 nM
- B16 — 5-fold higher, 0.6 nM
- B17 — 28-fold higher, 3.3 nM
- B18 — 2.5-fold higher, 0.3 nM
- B19 — 21-fold higher, 2.53 nM
- B20 — 14-fold higher, 1.69 nM
- B21 — 21-fold higher, 2.48 nM
- B22 — 17-fold higher, 1.99 nM
- B23 — 1.7-fold higher, 0.2 nM
